Measured values from the domain aggregation screens of Martell et al. (2025).

Assay: soluble fraction after stress (log2 fold change); higher = more stays soluble; pooled small domains, quantitative proteomics
Conditions: stress: 75 degC
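Also: 20 min heating vs room temperature control held 20 min.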

Sequence | soluble fraction (log2)
HMKSSLAKNLETLMQERQISQTRLSKISGVSQSYIFKILNDQIKKPSLDTLEKLATALDSTVAQLNH | -0.433
HMKSSTEIIYSDFLREVSNGQISEVTIQGDFVRGLFLSGSSFQTYAPKDSNLINILRDKKVRIKVHPP | -1.07
HMKSTELSIIEALRVLGLKHGASQDSIKKSYRRLVKQHHPDLGGSADSFRKVNEAYQLLIMN | -0.749
HMKSVILQLHPETLRWIREEAQADMADASVIQLLNDWELGTKKPTLSQVQKLSHETHIPFGYFFLKEKPA | -0.64
HMKSVQIPQSITVKEFSQAIEVSVADVIKKLMSMGVMVSQNKEINVDTAILVGEEFGVTVNVA | 0.609
HMKSVTVIFKESGNVVSSKKLSVVATAQYVDKSRITAPAGYRIATTDSKLKISENNTVTVEVK | -0.496
HMKSYTYNPNYLSDYNAYRLGIPLEALERLQLHRSTGRYVNSLSDFQSVTGISDSLKHSLSSSLRFPN | -1.36
HMKTDLQIQQDVMAELKWEPKVNAAHIGVEVKHGVVTLSGHVDSFAEKWNAEQAAKRVAGVKFIAIELDV | -2.1
HMKTEIKSPLPGIVLKIFVRTGEYVDKNQRLFSLEAMKMENEIKAERAGVIAGIRISEGQSVLQDEVIMEM | -3.7
HMKTFQSYQTTSMSNVNLRKRANGTSTILKRIKVGDTVTVVGKSGNYYQIQFDGKEGYALIKYIDGTDSGA | -1.95
HMKTFSTRLIALREAIGVNQSELARRVGVTPQAVQKWESGANGPRGKRLEKLASELRSTVGYLVSGEGDG | -0.434
HMKTGAKLKNLRKMKKLSQEEVAKVLNLSYSTLSRWENDTRIPTYEDLFKLGQFYGVSVDYLSDPN | -0.98
HMKTGNIITVSLVWKGKYYMIRMFFPSASRPTRSDVQNEIEKVYPGSKLSTFSVSDYEPGQPLLQV | -1.6
HMKTGNPYAQRNTADMYNYGRGIEKDSYLAFVWYFAAYKQGNDNAKPQIDSITASGHLSPNQQLHAKIE | -0.243
HMKTIQVGSTVRVNQGAKTYSGGGLASFVYKRNHKVSQLQGDRAVITYEGTVVAAVHVSDLSLIH | -0.192
HMKTLELIAAIRKRIAGGYAGADGRLPNIGEIAKDFSVSPMTAQKAVRALVEAGVLTSTRRKGVFLKQPAS | -2.09
HMKTLGMDKGVNIALNDAGLRAEDVSNLSAHYDTEDGVPVYEIKFTAGGFSYEYQIKASDGTIIEADRDAA | -0.00738
HMKTMAVYPVGTRVLTSDGEIGVVEKQNSEAPERPVIKILKGADGHDYEKPDFKDLMKILTLFIVDTI | 0.182
HMKTMSLSSIEKAIYKTKYENEPTSQRLSRIESSVFGTNFSQDSESERIARISSAINAQKSAK | 0.0313
HMKTMTTIRKGSRGDTVATLQRKLNLIADGIFGPITDEAVRDFQKSHGLAVDGIVGPKTWAALGVGS | 0.00482
HMKTNQINVSGLSKEKNFEVLESLDVYKFYNLFFLNKIKIDQLINSYNHIDNYSVFKKYPSSLIVKLSE | 0.0213
HMKTPETSEYVVQAGDSLRRILTERYGAKEQDLPYLYRQFRLLNPKVSSLDNIHAGTKVRIPLVASVL | -0.135
HMKTPRKVFTVLIRNTEYDVYDIDGKEHQGYNDTPKTWWLYHSERLPEGMIPPIDSDSWKPYSVGT | -1.27
HMKTTKESLLEYIQREVFTDSIHKEGLSTNEIADAFQIQRSNVSSLLNTLVKEGKLEKTTGRPVLYRIPEK | -0.126
HMKVEFDAMDKRILELMAKEYDTVLMARHLPLTPIVIDVRKKRIREVLNLPDATDAEIVIEAKEKDII | -1.08
HMKVEIVRVVKDIHIGDEITKDMVRTVEVGGYNLPDGVVKDTATVIGRFASADMVPGDYIISSKIADAP | -0.378

Sequence | soluble fraction (log2)
HMKVELSENEKIIYDLLSNQEVLLSEIKDKAELSNKAWDKSTKSLRKLGLVIVEKKDDNIYISKS | -0.101
HMKVGEIIKAKREELKIPLVNFAKELDISQGYLSQIENGIKTNPNLDIILKIIHRLDIDLAMLL | -1.93
HMKVIAEESYRILVDAIEKLPPQMKSIMQLALEGKSNPEIAETLNISGETVHSQKKIAYRKLRVYLKD | -2.36
HMKVIETKYNTYVVKSGDTLYSVAKKYGISVTELKEINDLSNNTLSIGQKLLVPATTIIIDE | -0.637
HMKVNMIIVMKPGARETDIQEVSNVLKSAGLGVHISKGTERTIIGVIGDKRLLNGIPLDLMHGVDKLVPIM | -1.24
HMKVNQFEVEGNQRYSTEEIAKASGVSKGDNLFLVNKTETARKLLDELAYVRSVNIKRKLPDTLVITVAE | -0.032
HMKVPDVQYMNKDSAIEALTANELKYTIVEAENENVAAGVVISQSVERDSQVAPGTSVELVVSTG | 0.212
HMKVQEMTANSFLTQWEAGNVKTLDILPEGIIKGELNDGTKFQLYYSSAAGLIDDVKKNPEKFANTTVSEK | 0.0538
HMKVQEVDYGTFLTMVDEGKVNQVDIENSKQITFNTKGDKNKVYITGQVNDPELVNRLYKAGVEFSQEIP | 0.273
HMKVSNWYFNGAPSATTPPTSQWTTEKDKKAHIGDTFTSLDKSPSPNAGKSWRYTPSYTWEEIV | 0.655
HMKVSRTAVKLHHANAVEVAKKLQPLFVVGDVQIEPVKDAGIILLKGPASTLADLRESIVQMDHTA | -0.188
HMKVTRWEDTGMKPAEAQEWQHYDFKPQEAMNWRDAGFVPLVARTWSDKGFDASEAQAWRDSVRNS | -0.618
HMKVVEKHIVPQIQNPIRLQEYASSIFKTITTRSGIKKAIKKQLILLNRKPANTGDWIKEGQLLELLAEE | -2.53
HMKVYIKDISDLSDKLKSLLIENDIDDSNKLFEVEDQVLLEIKGLGSKTIDKIKDIVTEYLKKNN | -0.266
HMKVYPIMEAIANNNIELVKLLLEYHADLNIKDSNGNTPLALAKETGAKEVEDLLLQWMKQHT | -1.06
HMKWGDTPTVEVPNLIGMKKKDLQTQLVDLKLDISGDGEKVIKQSPEAGAKVKEGSKIRIYFG | -0.332
HMKWYDSDKGFGFLSQEEGEDVYVRSSALPAGVEGLKAGQRVEFGIASGRRGPQALSL | -0.31
HMKYKKYKLLKDLPTFKAGQLAYISKTGNLIAGTPENQKTTETGLIIMIYHETTLKKFPNILTEWFEEIE | -3.3
HMKYNGDRPVFNDDVAWAKWMLENPAKITSHDKENLSSMLKKPEVVMLFEAEDLSVPDLRTLAKE | ≥ 1.04
HMKYNYEAQQSDELSLVKGSRIHVLEKSSDGWWKGEIDNVVGWFPS | -0.239
HMKYRLLGENLQTIRKARGMKQQELADQIGINMQSLSKIERGLNYPTFETLEKIMNALGITPNELLSG | -0.82
HMKYRPGDVVTLRVARMGEMGAFLDAGTGNTNDDILLHKMQQTEEIKAGQDVKVYLYLDPNRRLTASMKL | -0.835
HMKYSNDEVERDLYVRGVIYQIGDLVENKLDGTSGEVVRRGPNYVQYTDGENFYKAFLSALQEQK | -0.369
HMKYSYAELTKLQEQIAQDRNAPLTVPNALGIGLDERNNVIEITVNIADEAAAKAYYLQKYGDRISLKTTD | -0.317
HMKYTEEIFNILSRGGFISANSVSSTVKRYYDALEEDFTEYYDYYKGIGFYLEAGNGYYLFTR | -3.41
HMKYTVKSPLPGVIMSVLVKVGDTVKASDTVISLEAMKMENAIHAGRDGKVTSIDVNVGDSVLEGHTLVTI | -0.594

Sequence | soluble fraction (log2)
HMLAAGTPLTVVTESSNLNIRQEPSTEAAVVGKAAKGEIVTLVEQTSGEWWKVSTKDGEEGYAYSRYL | 0.678
HMLAAGTSLTVDTESSNLNIRQEPSTEGVILGKAAKGEVVTLVEQSSDEWWKIKTKDGEEGYAYARYLR | 0.175
HMLADRANMAPAALRQIMTAIDGGNVTPKQIESATGMAHATVARALRKMLDDGLIANDGKGRYTVLT | -0.212
HMLADTNIHTIALKHRLANEVVEQVRPFLPETATIRAYDNMLILKSDRATLANVEQLIKKLDT | 0.0428
HMLALVREQIERNVSNPTDEDIRKIRHDVMEVITRAGADAATVDIAIEIDSQKNILRAIATGATEL | -0.0966
HMLAMHVVESVGGAEQFTKLQNFAKTQNADYQKMWNDTMNSGNVLAIKTMLSGIQSDMIAVQ | -0.276
HMLAQDVIVKQDGGTILSKVLEIGTQEIAYKKWNSQDGPVYKIAKDQVLSVNYQNGEVDRFA | -0.00975
HMLAQISDEGAIGAVVARVLDAHPNEVARYHAGEEKVAKFLMGAAMRELRGKGDPAVVQRLLSEGLDARRV | -0.00832
HMLARPTANELVKEMQRRAKEQRTELPPDAARDLLERSGQDQFLLGNEVDKLAALSGYTTITREMVAQAGT | 0.247
HMLAVPADFAEKLQSLRSQLASDDLDASDAFGRLQPFIKALYPAQLEALRKAVDDFDFVEATRLIDQLPQ | -0.376
HMLAYQRTYEKILEDLRNDVYPVNSLLPPEPKLEEIYHVSRTTVRRAIAQLADEGYVKVKQGYGTVVLKN | -2.02
HMLDEPPVSQTLTTYDREHMALYLRLLDSARDGADWREAVQILFGLDPTRDPLRSRHVHDTHLARARWM | -0.0384
HMLDFGQEDSEAVSEIILVLGRYWMDFSHKKYPEAEGSALRHKGISHIFTVLKPYLTSATAQLIEQRLQQ | -0.0669
HMLDIQKKGENIAYIEGAGDVIPESLKQIGYHVVTIAPKDINAETLSRFDAVVVGIRAYNTVEDL | 0.0708
HMLDKIRTYIDNSFTGVNETKKVKELKDELFENLKEKYNDQIQDGKTEQEAYNSVISGIGDLSELIESVK | ≥ 1.04
HMLDKKKHLEQGRKIIEDQLAKYKIQPSFDTLKKLSAYYGLNNKEQLYAQVGMGFLELENLDEILQ | 0.307
HMLDLPVRTINGRQYYYYEVRNRETVYGLSKRLGVTREEIVRYNPSMADGLKRGAILYFPVDEFSDRI | -2.84
HMLDLSDFEVVRDLYLSEQIWNVGDLIIARSKKDDTYKAWEIIRKGTNYVTGIDESHKVEKIWLHDILI | -1.15
HMLDSPHDDLNRKIVQMLQNDGRLPYKDIAEVLSVSEGTVRNRVQRMRDAGMLNIVALIDPMAI | -0.0197
HMLDTPLTARELDVLYLMRQRMSAKEIAKQLGIATMTVNRHAANLYRKLGVNTRWDAVYRAEEVGILPP | -1.45
HMLDVNLIFSRPGFSLSAAFTLHAGGITVLRGDSGSGKTTLADLLSGAIAPQKGRILSDGDIWFDAASGIN | 0.108
HMLDYITLSPQELGKLLSAGNGDAAMVYLYMKATGDVTLKQAETQLGMTNQNLAWAESLLKRLGLMD | -1.9
HMLDYKSALQELLQAQRRSRPRYEVISTEGPDHERVFEVAVWLDNEELGRGKGRSKREAEHQAAQAALTQL | -0.115
HMLDYQLQVFKDTLEANRKHRGQKIVFIHGKGEGVLRRALIHALNYQYKKFTYQDASFREYGYGATQVTI | -0.312
HMLEEIDYPEEQLQLLFAWSRDHVQSTPPGLPVVDDHVWHILVRGYGATDQRTEAFALLASYAGFP | 0.135
